Like-named read-outs stand apart in the source and are kept apart here.
Tests used:
[1] = target: type I collagen extracted from male Wistar Hannover rat tail tendons (dialyzed) (rat (Wistar Hannover, extracted from tail tendons)) (UniProt P02454); experiment: ITC; NaOH (4.6 uM in ultrapure water) titrated in 24 aliquots into 950 uL type I collagen (0.2 mg/mL in 0.33% v/v acetic acid), 30.0 ± 0.1 °C, stirred at 300 rpm; self-assembly (fibrillogenesis) triggered by the rise in pH; areas corrected by the acid-base control titration; enthalpy of self-assembly at the isoelectric point; at least triplicate
[2] = target: type I collagen extracted from male Wistar Hannover rat tail tendons (dialyzed) (rat (Wistar Hannover, extracted from tail tendons)) (UniProt P02454); experiment: as above; remark: listed apart in the source

type I collagen extracted from male Wistar Hannover rat tail tendons (dialyzed), P02454 152-1207; P02466 86-1125 (complex; other documents disagree on this pair), sequence (P02454 152-1207): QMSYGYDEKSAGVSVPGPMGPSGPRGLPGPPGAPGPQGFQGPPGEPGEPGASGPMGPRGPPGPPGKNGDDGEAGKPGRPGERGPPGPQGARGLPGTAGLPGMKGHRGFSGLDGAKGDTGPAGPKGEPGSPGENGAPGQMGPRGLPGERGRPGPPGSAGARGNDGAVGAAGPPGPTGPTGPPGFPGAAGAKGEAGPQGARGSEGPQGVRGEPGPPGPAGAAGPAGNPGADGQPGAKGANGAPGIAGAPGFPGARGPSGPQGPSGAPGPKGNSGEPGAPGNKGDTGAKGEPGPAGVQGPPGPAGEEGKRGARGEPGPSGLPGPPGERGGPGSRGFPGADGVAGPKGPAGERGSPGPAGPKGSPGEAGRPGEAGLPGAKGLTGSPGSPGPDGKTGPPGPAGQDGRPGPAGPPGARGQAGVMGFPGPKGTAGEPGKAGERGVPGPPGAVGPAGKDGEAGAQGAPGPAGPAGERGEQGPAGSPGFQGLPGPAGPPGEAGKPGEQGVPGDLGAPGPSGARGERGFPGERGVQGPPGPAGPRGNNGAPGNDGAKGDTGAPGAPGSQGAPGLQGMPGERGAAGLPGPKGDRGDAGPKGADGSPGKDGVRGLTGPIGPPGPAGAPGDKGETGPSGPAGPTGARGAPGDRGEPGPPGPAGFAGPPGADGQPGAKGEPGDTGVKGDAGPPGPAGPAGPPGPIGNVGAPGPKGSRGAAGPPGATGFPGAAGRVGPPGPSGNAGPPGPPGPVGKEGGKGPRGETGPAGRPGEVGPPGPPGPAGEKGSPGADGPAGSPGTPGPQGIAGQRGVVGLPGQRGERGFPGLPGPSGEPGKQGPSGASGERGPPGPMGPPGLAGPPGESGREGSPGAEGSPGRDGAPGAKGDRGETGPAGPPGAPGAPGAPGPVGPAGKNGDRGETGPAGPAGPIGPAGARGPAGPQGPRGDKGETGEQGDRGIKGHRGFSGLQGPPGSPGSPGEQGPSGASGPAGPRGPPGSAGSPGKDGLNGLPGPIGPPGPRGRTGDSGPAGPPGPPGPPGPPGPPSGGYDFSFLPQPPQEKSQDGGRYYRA
type I collagen extracted from male Wistar Hannover rat tail tendons (dialyzed), P02454 152-1207; P02466 86-1125 (complex; other documents disagree on this pair), sequence (P02466 86-1125): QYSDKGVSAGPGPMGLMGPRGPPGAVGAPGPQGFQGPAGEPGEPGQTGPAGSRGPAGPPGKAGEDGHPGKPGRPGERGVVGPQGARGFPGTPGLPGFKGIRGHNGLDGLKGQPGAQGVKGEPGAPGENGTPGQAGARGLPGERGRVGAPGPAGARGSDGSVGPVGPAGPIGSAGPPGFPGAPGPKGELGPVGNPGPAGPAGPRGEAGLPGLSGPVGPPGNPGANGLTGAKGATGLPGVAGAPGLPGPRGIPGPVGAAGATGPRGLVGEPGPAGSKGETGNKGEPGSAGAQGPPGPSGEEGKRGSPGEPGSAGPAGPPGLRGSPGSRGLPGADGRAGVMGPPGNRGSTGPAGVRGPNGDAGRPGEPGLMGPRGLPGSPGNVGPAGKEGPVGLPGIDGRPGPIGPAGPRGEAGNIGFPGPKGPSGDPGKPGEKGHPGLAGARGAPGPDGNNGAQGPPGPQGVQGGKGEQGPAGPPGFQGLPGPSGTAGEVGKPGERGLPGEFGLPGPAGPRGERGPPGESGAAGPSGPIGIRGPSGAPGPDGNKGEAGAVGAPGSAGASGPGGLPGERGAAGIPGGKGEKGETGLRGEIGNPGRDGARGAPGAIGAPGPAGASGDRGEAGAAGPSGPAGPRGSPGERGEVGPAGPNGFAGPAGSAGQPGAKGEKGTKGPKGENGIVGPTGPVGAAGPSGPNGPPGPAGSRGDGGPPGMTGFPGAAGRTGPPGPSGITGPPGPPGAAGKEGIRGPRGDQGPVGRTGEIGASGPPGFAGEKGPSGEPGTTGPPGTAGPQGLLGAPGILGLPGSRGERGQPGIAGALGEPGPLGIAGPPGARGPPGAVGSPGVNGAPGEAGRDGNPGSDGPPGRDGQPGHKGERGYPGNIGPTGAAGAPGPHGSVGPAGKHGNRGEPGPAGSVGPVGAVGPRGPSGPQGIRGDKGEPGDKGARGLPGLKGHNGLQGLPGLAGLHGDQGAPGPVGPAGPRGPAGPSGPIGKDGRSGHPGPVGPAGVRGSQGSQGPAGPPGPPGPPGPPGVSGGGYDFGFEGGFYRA

- dH [1]: 3.28 J/mol
- dH [2]: 3.27 J/mol
Substance: type I collagen extracted from male Wistar Hannover rat tail tendons (dialyzed), P02454 152-1207; P02466 86-1125 (complex; other documents disagree on this pair)
